Series [1] concerns the target Isatin hydrolase A from Labrenzia aggregata (Labrenzia aggregata IAM12614). As to the kind of experiment: crystal structure; LaIHA at 15-20 mg/mL with 1 mM MnCl2, crystallised at 22 °C; structures with benzyl benzoate (1.50 Å) and isatinate (1.79 Å); dimer in the asymmetric unit.
Substrate in the series “purified protein”: O=C1Nc2ccccc2C1=O
Nature of the series: purified protein. Conditions: Mn2+ dependent enzyme; one-site Michaelis-Menten fit. Format: biochemical, Roseibium aggregatum.

Data on 2 molecules can be found in article PMC6117287.

As for “Isatin hydrolase A from Labrenzia aggregata (enzyme)”, in series [1], the stoichiometry N (as a rule, the number of molecules, sites or subunits per partner or assembly) is 2.

B1: LaIHA (Roseibium aggregatum IAM 12614) (protein)
chain: MSSLNQLVSGLASGAVRIVDLTHTLDPDFPVIVLPPEFGQCARFRMEEISAYDHRGPAWKWHNISMSEHTGTHFDAPSHWISGKDVPNGSVDEIPAEAFVGPVVVIDCSKGAAENDDFELTPEIIAGWESEHGRIPEDAWVLMRTDWSKRRGADYLNMRADGPHSPGPTPEAIRFLIEERNIRGFGTETVGTDAGQGAHYVPPYPAHYLLHGAGKYGLQCLANLDQLPATGAVLIAAPLKIKNGTGSPLRVLAMVTE
B1: the Km (usually the substrate concentration at which the rate is half of its maximum) in “purified protein” is 16 µM.
